T1: mutant human CD20 #8 (Y77F, N163D, N166D) (human, UniProt P11836 1-297)
T1 construct: Stably expressed on MG87 cells
T1 chain: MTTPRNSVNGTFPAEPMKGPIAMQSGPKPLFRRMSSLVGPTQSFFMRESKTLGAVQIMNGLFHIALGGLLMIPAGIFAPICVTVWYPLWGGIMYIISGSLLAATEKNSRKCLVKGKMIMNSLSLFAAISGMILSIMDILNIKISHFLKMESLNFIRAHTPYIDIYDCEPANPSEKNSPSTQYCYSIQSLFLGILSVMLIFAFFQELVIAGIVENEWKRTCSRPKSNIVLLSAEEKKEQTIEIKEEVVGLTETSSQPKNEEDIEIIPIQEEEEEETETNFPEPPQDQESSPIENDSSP

T2: mutant human CD20 #7 (Y77F, N163D) (human, UniProt P11836 1-297)
T2 construct: Stably expressed on MG87 cells
T2 chain: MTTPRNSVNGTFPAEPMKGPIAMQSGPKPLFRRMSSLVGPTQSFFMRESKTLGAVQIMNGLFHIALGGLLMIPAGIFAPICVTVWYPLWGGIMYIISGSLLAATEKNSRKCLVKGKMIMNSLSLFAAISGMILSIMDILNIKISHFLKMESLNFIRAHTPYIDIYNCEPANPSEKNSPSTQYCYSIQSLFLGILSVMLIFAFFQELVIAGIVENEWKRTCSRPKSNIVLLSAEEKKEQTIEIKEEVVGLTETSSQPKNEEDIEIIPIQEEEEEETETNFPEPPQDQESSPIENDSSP

T3: mutant human CD20 #2 (N163D) (human, UniProt P11836 1-297)
T3 construct: Stably expressed on MG87 cells
T3 sequence: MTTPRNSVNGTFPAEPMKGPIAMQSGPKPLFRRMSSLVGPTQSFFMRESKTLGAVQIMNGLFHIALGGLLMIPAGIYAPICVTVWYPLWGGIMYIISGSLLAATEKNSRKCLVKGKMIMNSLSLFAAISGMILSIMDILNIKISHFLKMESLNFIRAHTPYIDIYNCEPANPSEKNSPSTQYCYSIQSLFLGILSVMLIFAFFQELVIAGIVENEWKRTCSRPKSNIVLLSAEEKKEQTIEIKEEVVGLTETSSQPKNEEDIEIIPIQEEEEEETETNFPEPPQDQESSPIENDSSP

T4: mutant human CD20 #1 (Y77F) (human, UniProt P11836 1-297)
T4 construct: Human residues replaced by mouse residues; stably expressed on MG87 cells
T4 sequence: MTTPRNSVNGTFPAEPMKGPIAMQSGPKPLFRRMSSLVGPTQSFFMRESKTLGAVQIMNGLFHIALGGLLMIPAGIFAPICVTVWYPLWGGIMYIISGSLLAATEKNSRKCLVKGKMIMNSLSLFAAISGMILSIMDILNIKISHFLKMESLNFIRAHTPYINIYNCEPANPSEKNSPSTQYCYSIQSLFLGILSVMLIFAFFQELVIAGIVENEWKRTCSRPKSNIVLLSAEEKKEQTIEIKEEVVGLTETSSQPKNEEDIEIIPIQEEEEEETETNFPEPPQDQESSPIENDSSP

T5: mutant human CD20 #10 (A157V) (human, UniProt P11836 1-297)
T5 construct: Stably expressed on MG87 cells
T5 sequence: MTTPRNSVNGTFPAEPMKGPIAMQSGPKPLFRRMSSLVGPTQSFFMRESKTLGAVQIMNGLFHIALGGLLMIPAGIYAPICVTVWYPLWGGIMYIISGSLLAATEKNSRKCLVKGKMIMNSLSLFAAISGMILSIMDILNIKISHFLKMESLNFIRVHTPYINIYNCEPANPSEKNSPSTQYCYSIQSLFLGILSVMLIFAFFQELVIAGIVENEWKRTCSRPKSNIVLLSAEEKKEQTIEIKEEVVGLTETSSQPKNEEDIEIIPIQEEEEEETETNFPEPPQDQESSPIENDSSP

T6: mutant human CD20 #3 (A170S, P172S) (human, UniProt P11836 1-297)
T6 construct: Stably expressed on MG87 cells
T6 chain: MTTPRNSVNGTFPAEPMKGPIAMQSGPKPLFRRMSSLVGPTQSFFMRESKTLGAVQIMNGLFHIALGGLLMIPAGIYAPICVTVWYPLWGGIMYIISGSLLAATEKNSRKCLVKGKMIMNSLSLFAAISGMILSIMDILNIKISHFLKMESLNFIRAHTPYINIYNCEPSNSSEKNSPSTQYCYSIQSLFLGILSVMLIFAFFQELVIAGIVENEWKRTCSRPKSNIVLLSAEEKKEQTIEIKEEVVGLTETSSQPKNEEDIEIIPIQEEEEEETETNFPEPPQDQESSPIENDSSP

T7: human CD20 (human, UniProt P11836 1-297)
T7 sequence: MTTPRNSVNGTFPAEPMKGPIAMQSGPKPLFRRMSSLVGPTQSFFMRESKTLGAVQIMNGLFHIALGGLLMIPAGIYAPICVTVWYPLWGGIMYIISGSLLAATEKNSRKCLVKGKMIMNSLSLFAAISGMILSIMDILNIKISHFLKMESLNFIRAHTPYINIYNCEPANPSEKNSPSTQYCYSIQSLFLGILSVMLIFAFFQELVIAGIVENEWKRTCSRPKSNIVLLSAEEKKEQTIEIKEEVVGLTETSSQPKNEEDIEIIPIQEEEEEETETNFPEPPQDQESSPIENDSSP


Key:
[1] = target: T1, mutant human CD20 #8 (Y77F, N163D, …); assay: FACS, mutant-hCD20 MG87 cells; 100%=best antibody
Protocol: (§1) Briefly, approximately 1×10⁶ cells from each stably transfected cell line expressing a mutant human CD20 were collected and incubated with each anti-human antibody, at 10 μg/ml, on ice for 1 hr, followed by incubation with APC-conjugated goat anti-human IgG (Jackson Immunolabs), at 10 μg/ml, on ice for 45 min. For each antibody, binding to each mutant human CD20 was assessed by flow cytometry.

[2] = target: T2, mutant human CD20 #7 (Y77F, N163D); assay: FACS, mutant-hCD20 MG87 cells; 100%=best antibody
Protocol: as §1

[3] = target: T3, mutant human CD20 #2 (N163D); assay: FACS, mutant-hCD20 MG87 cells; 100%=best antibody
Protocol: as §1

[4] = target: T4, mutant human CD20 #1 (Y77F); assay: FACS, mutant-hCD20 MG87 cells; 100%=best antibody
Protocol: as §1

[5] = target: T5, mutant human CD20 #10 (A157V); assay: FACS, mutant-hCD20 MG87 cells; 100%=best antibody
Protocol: as §1

[6] = target: T6, mutant human CD20 #3 (A170S, P172S); assay: FACS, mutant-hCD20 MG87 cells; 100%=best antibody
Protocol: as §1

[7] = target: T7, human CD20; assay: cell-based or functional assay
[8] = target: T7, human CD20; assay: cell-based or functional assay; remark: listed apart in the source

Row | Binder | Percent of Binding to Mutant Human CD20 [1] [%] | Percent of Binding to Mutant Human CD20 [2] [%] | Percent of Binding to Mutant Human CD20 [3] [%] | Percent of Binding to Mutant Human CD20 [4] [%] | Percent of Binding to Mutant Human CD20 [5] [%] | Percent of Binding to Mutant Human CD20 [6] [%] | CDC, Daudi EC50 [7] [nM] | CDC, RL EC50 [7] [nM] | ADCC EC50 (pM), Daudi + PBMC [8] [pM]
1 | 2C11-4 (antibody, V domains shown, Fully human IgG, constant region not specified; also called 2C11-4N) VH: EVQLVESGGGLVQPGRSLRLSCAASGFTFRDYAMHWVRQGPGKGLEWVSGISWNTDYIGYADSVKGRFTISRDNAKNSLYLQMNSLRPEDTALYYCAKDARYGRDNYYGMDVWGQGTTVTVSS VL: EIVLTQSPATLSLSPGERATLSCRASQSVSRYLAWYQQKPGQAPRLLIHDASNRATGIPARFSGSGSGTDFTLTITSLEPEDFVVYYCQQRSDWPITFGQGTRLEIK | 0 | 1 | 0 | 35 | 68 | 11 | > 50 | 5.19 | 1.45
2 | 10E3-17 (antibody, V domains shown, Fully human IgG, constant region not specified; also called 10E3-17N) VH: EVQLVESGGGLVQPGRSLRLSCAASGFTFRDYAMHWVRQVPGKGLEWVSGISWNRGTIGYADSVKGRFTISRDNAKNSLFLQMNSLRADDTALYYCAKDHYYGSGSPYGMDVWGQGTTVTVSS VL: EIVLTQSPATLALSPGERATLSCRASQSVSKYLAWYQQKPGQAPRLLIYDASKRVTGIPGRLSGSGSGTDFTLTISSLEPEDFALYYCQQSSNWPITFGQGTRVEIK | 0 | 1 | 1 | 61 | 87 | 6 | 0.59 | 7.8 | 1.2
3 | 2B7-7 (antibody, V domains shown, Fully human IgG, constant region not specified; also called 2B7-7N) VH: EVQLVESGGGLVQPGRSLRLSCAASGFTFRDYTMHWVRQGPGKGLEWVSGISWNSDYIGYADSVKGRFTISRDNAKNSLYLQMNSLRVEDTALYYCAKLSGTYRDYFYGVDVWGQGTTVTVSS VL: EIVLTQSPATLSLSPGERAALSCRASQSVSNYLAWYQQKPGQAPRLLIYDASNRATGIPARFSGSGSGTDFTLTISSLEPEDFAVYYCQQRSNWPLTFGGGTKVEIR | 0 | 2 | 40 | 100 | 83 | 87 | 0.24 | 1.03 | 1.99

From US20090035322A1 (Regeneron, published 2009)
